The record followed here is patent US20220332758A1, “PEPTIDE-BASED COMPOSITIONS AND METHODS FOR TREATING ALZHEIMER'S DISEASE” (Board of Regents, The Universityof Texas System, priority 2019, published 2022).

Where no end group is shown, it is not given here. [ ]: non-standard residue; d: D form. Aib = CC(C)(N)C(=O)O

The assay deals with human housekeeping core (20S) proteasome purified from erythrocytes (human), P60900. As to the kind of experiment: cell-based or functional assay.

GRKKRRQ[Aib]GQRRKKRG [Tat5-8,9 Aib]: the AC50, ChT-L activity (Suc-LLVY-MCA) was 183 nM and the Max activation fold, ChT-L activity came out at 8.9 fold.
